Drawing on PMC10663500, this text covers Kd, response and koff for 4 molecules.

The target of assay [1] is T1, mouse programmed cell death protein 1 C60S (aa 25-167) Fc fusion protein, Q02242.
T1 chain: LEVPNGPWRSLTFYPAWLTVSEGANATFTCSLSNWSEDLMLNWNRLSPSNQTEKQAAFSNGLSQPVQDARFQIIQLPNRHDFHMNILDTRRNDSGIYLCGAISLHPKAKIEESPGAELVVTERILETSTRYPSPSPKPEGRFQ
As to the kind of experiment: BreviA (SPR). As to conditions: chain shown with the change;, read off a plot; for Kd: parent: est. 1.2e-7 M.

Assay [2] addresses T2, human programmed cell death protein 1 C93S (aa 24-167), Q15116. Kind of assay: SPR. As to conditions: chain shown with the change; top curve (taken as 1024 nM hPD-1), read at end of association, about 570 s; antibody immobilized as ligand; parent: est. 740; read off a plot.
The target in assay [3] is T2, human programmed cell death protein 1 …. Kind of assay: BreviA (SPR). As to conditions: chain shown with the change;; parent: est. 910 pM; read off a plot.

T2 sequence (Q15116 24-167 C93S): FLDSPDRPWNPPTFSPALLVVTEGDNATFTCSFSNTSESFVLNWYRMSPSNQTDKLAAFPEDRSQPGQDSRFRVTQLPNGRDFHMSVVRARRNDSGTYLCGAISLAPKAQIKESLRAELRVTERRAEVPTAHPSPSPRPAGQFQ

B1: toripalimab Fab (wild-type) L:L101A (protein)
chain 1: QGQLVQSGAEVKKPGASVKVSCKASGYTFTDYEMHWVRQAPIHGLEWIGVIESETGGTAYNQKFKGRVTITADKSTSTAYMELSSLRSEDTAVYYCAREGITTVATTYYWYFDVWGQGTTVTVSS
chain 2: DVVMTQSPLSLPVTLGQPASISCRSSQSIVHSNGNTYLEWYLQKPGQSPQLLIYKVSNRFSGVPDRFSGSGSGTDFTLKISRVEAEDVGVYYCFQGSHVPATFGQGTKLEIK
Consider B1, for which the Kd in assay [1] came out at 26 nM.

B2: toripalimab Fab (wild-type) L:V99G (protein)
chain 1: QGQLVQSGAEVKKPGASVKVSCKASGYTFTDYEMHWVRQAPIHGLEWIGVIESETGGTAYNQKFKGRVTITADKSTSTAYMELSSLRSEDTAVYYCAREGITTVATTYYWYFDVWGQGTTVTVSS
chain 2: DVVMTQSPLSLPVTLGQPASISCRSSQSIVHSNGNTYLEWYLQKPGQSPQLLIYKVSNRFSGVPDRFSGSGSGTDFTLKISRVEAEDVGVYYCFQGSHGPLTFGQGTKLEIK
Consider B2, for which, in assay [2], the response stood at 770 RU. Further, the dissociation constant Kd in assay [3] is 2 nM.

B3: toripalimab Fab (wild-type) L:V99A (protein)
chain 1: QGQLVQSGAEVKKPGASVKVSCKASGYTFTDYEMHWVRQAPIHGLEWIGVIESETGGTAYNQKFKGRVTITADKSTSTAYMELSSLRSEDTAVYYCAREGITTVATTYYWYFDVWGQGTTVTVSS
chain 2: DVVMTQSPLSLPVTLGQPASISCRSSQSIVHSNGNTYLEWYLQKPGQSPQLLIYKVSNRFSGVPDRFSGSGSGTDFTLKISRVEAEDVGVYYCFQGSHAPLTFGQGTKLEIK
Consider B3, for which the dissociation rate constant (koff) in assay [1] (parent: est. 5.9e-3 s-1) amounted to 0.00036 s⁻¹.

B4: toripalimab Fab (wild-type) L:P100H (protein)
chain 1: QGQLVQSGAEVKKPGASVKVSCKASGYTFTDYEMHWVRQAPIHGLEWIGVIESETGGTAYNQKFKGRVTITADKSTSTAYMELSSLRSEDTAVYYCAREGITTVATTYYWYFDVWGQGTTVTVSS
chain 2: DVVMTQSPLSLPVTLGQPASISCRSSQSIVHSNGNTYLEWYLQKPGQSPQLLIYKVSNRFSGVPDRFSGSGSGTDFTLKISRVEAEDVGVYYCFQGSHVHLTFGQGTKLEIK
As for B4, the response in assay [2] was 470 RU. Also, in assay [1], the equilibrium dissociation constant (Kd) stood at 1 nM.
